Six molecules from patent publication US20190010227A1 (WELSON PHARMACEUTICALS, published 2019) can be followed below.

The target of one assay is T1, ECD of rec. EGFR (human, UniProt P00533 25-645).
T1 construct: extracellular domain; also called human epidermal factor receptor (EGFR)
The assay is described as follows: SPR (BIAcore), chip coated with ECD of rec. EGFR. An excerpt: 1. Biacore assay. To test the affinity between human epidermal factor receptor (EGFR) and the present invention of humanized anti-EGFR antibody using BIAcore system which is based on the surface plasmon resonance technique, the chip was coated with ECD of rec. EGFR.
(Surface plasmon resonance follows binding to a sensor surface in real time, without labels.)

Assay [1] addresses T2, EGFR on A431 cell surface (human, UniProt P00533 25-1210).
T2 construct: whole, on cells; also called EGFR expressed on A431 cell surface; EGFR on live A431 cell surface
The assay can be described thus: cell-based ELISA on A431 cells, HRP-conjugated goat anti-mouse IgG, TMB, OD450. As for the experimental part: (§1) 3. Cell ELISA assay A431 cells were seeded at 20,000 cells/well of 96-well plate in DMEM-10% FBS and incubated at 37° C. 5% CO₂. 24 hours later, discard the medium. After two washes with PBS and blocking with 5% skim-milk/PBS for 1 h, wells were incubated with different concentration of mLA22 and hLA22 in 5% skim-milk-PBS for another one hour. After two washes with PBS, wells were then incubated with HRP-conjugated goat anti-mouse IgG secondary antibodies or HRP-conjugated goat anti-human IgG secondary antibodies (Jackson Lab) in 5% skim-milk-PBS for 1 h at room temperature. After washes with PBS, HRP substrate 3, 3′, 5, 5′-tetramethylbenzidine (TMB) solution was added. The reaction was stopped with stop solution (0.1M […]) and absorbance was measured at 450 nm with a microplate reader.
A general note: An ELISA detects its analyte on a solid surface through an enzyme-linked reagent.

Assay [2] deals with T2, EGFR on A431 cell surface. The assay can be described thus: cell-based ELISA on A431 cells, HRP-conjugated goat anti-human IgG, TMB, OD450. As to the method: as §1

Substitutions are numbered along the chain they refer to.

B1: Mouse monoclonal antibody LA22 (antibody, V domains shown)
VH: EVQLVESGGGLVQPGESLKLSCESNEYEFPSHDMSWVRKTPEERLELVAAITSDGISTYYPDTMERRFLISRDNTKKTLYLQMSSLRSEDTALYYCSRHDWDEGFASWGQGTLVTVSA
VL: DVVMTQTPLSLPVSLGDQASISCRSSQSLVHSNGNTYLHWYLQKPGQSPKLLIYKVSNRFSGVPDRFSGSGSGTDFTLKISRVEAEDLGIYFCSQSSHVPPAFGGGTKLEIK
notes: Mouse hybridoma antibody (ATCC deposit, US 5,459,061); the mouse constant regions are not; also called mLA22; mouse LA22
B1: in the assay with ECD of rec. EGFR, the Kd – broadly, the constant that tells how readily two partners part at equilibrium – worked out at 2 nM; the koff (as a rule, a measure of how fast the partners let go of each other) came to 4.3e-05 s⁻¹; the association rate constant (kon) (as a rule, the second-order rate constant of association) was found to be 22000 M⁻¹ s⁻¹. Moreover, the EC50 (read off the curve) (usually the concentration needed to bring the measured effect to its halfway point) in assay [1] was about 1 µg/mL.

B2: Humanized LA22 (H1 + h2) (antibody, human IgG1, V domains shown)
VH: EVQLVESGGGLVQPGGSLRLSCESNEYEFPSHDMSWVRQAPGKGLEWVSAITSDGISTYYPDTMERRFTISRDNSKNTLYLQMNSLRAEDTAVYYCARHDWDEGFASWGQGTLVTVSS
VL: B1 VL with T7S, S14T, D17Q, Q18P, L42Q, K44R, K50R, L88V
notes: Human IgG1 / kappa constant regions; also called H1-LA22 / h2-LA22
In the assay with ECD of rec. EGFR, B2 displayed a Kd of 14 nM, a koff of 0.000146 s⁻¹ and a kon of 10400 M⁻¹ s⁻¹.

B3: Humanized LA22 (H4 + h2) (antibody, human IgG1, V domains shown)
VH: B2 VH with E23A, A40T, G44R, N84S
VL: B1 VL with T7S, S14T, D17Q, Q18P, L42Q, K44R, K50R, L88V
notes: Human IgG1 / kappa constant regions; also called H4-LA22 / h2-LA22
In the assay with ECD of rec. EGFR, B3 came in with a dissociation constant (Kd) of 15.4 nM, a koff of 0.000188 s⁻¹ and a kon of 12200 M⁻¹ s⁻¹.

B4: Humanized LA22 (H0 + h2) (antibody, human IgG1, V domains shown)
VH: B2 VH with E23A, S24A, N25S
VL: B1 VL with T7S, S14T, D17Q, Q18P, L42Q, K44R, K50R, L88V
notes: Human IgG1 / kappa constant regions; also called HO-LA22 / h2-LA22
On to B4, for which, in the assay with ECD of rec. EGFR, the affinity, expressed as Kd, was 13.2 nM; the koff turned out to be 6.9e-05 s⁻¹; the kon amounted to 5200 M⁻¹ s⁻¹.

B5: Humanized LA22 (H2 + h2) (antibody, human IgG1, V domains shown)
VH: B2 VH with S75T, N77K
VL: B1 VL with T7S, S14T, D17Q, Q18P, L42Q, K44R, K50R, L88V
notes: Human IgG1 / kappa constant regions; also called H2-LA22 / h2-LA22
Turning to B5, in the assay with ECD of rec. EGFR, binding was characterised by a dissociation constant (Kd) of 12 nM, the koff was found to be 7.7e-05 s⁻¹ and the kon worked out at 6400 M⁻¹ s⁻¹.

B6: Humanized LA22 (H3 + h2) (antibody, V domains shown)
VH: B2 VH with E23A, A40T, N84S
VL: B1 VL with T7S, S14T, D17Q, Q18P, L42Q, K44R, K50R, L88V
notes: also called hLA22; hLA22 h2H3
In the assay with ECD of rec. EGFR, B6 came in with a Kd of 2.3 nM, a koff of 3.8e-05 s⁻¹ and a kon of 16400 M⁻¹ s⁻¹. Further, in assay [2], the 50% effective concentration (EC50 (read off the curve)) is about 1 µg/mL.
